Substrate in data set [1]: C[C@H]1CC[C@]2(NC1)O[C@H]1C[C@H]3[C@@H]4CC=C5C[C@@H](O)CC[C@]5(C)[C@H]4CC[C@]3(C)[C@H]1[C@@H]2C
Description: purified protein, by the assay type. More on the design: LC-MS of product formation by purified recombinant enzyme; Michaelis-Menten nonlinear regression (ANEMONA). The settings on record: pH 7.2. The protocol:
(§1) An in vitro enzyme activity assay was performed using 100 μl of reaction mixture containing 100 mM Bis–Tris–HCl (pH 7.2), 5 mM 2-oxoglutarate, 10 mM sodium ascorbate, 0.2 mM FeSO4, 25 μM substrate, and 1 μg purified recombinant proteins as the enzyme. The reaction was initiated by the addition of the enzyme and was carried out at 30 °C for 30 min. The reaction was then stopped by incubation for 2 min at 90 °C. After centrifugation, 20 μl of supernatant was diluted with 180 μl methanol and filtered through 0.2-μm nylon membrane filters (Acrodisc, Waters). An aliquot (2 μl) was analyzed using LC–MS, as described in “Feeding experiments” above. We determined the kinetic parameters of the recombinant DPS and St7070 in triplicate assays. The assays were conducted as described above, with minor modifications. Briefly, 0.1 μg purified DPS protein or 0.02 μg purified St7070 were used. […] A 20 μl sample of assay mixture was diluted with 180 μl methanol and filtered through 0.2-μm nylon membrane filters (Acrodisc, Waters). An aliquot (2 μl) was analyzed using LC–MS, as described above. The kinetic parameters were determined by nonlinear regression, using the ANEMONA program. Supplementary Fig. 21| Enzyme kinetics of purified recombinant DPS and St7070 with a-solamarine and (22S,25S)-spirosol-5-en-3b-ol. […]

Substrate in data set [2]: C[C@H]1CC[C@]2(NC1)O[C@H]1C[C@H]3[C@@H]4CC=C5C[C@@H](O[C@@H]6O[C@H](CO)[C@H](O)[C@H](O[C@@H]7O[C@H](CO)[C@@H](O)[C@H](O)[C@H]7O)[C@H]6O[C@@H]6O[C@@H](C)[C@H](O)[C@@H](O)[C@H]6O)CC[C@]5(C)[C@H]4CC[C@]3(C)[C@H]1[C@@H]2C
Briefly: purified protein, by the assay type. More on the design: LC-MS of product formation by purified recombinant enzyme; Michaelis-Menten nonlinear regression (ANEMONA). The settings on record: pH 7.2. The protocol: as §1

B1: St7070 (Solanum tuberosum) (protein)
chain: MASTKVTIPTIDFFNSELKPNTPQWELTKVQVFEALQEFGCFEAIYNKVPNEIREGMFDTLKEVFDFPLSKLIEYREKPFHIYDGQIPSVPLFGSVYSADLVLPNSVETFANTFWSHGNPNFSNVAKSYFKQLMELNGMVEKMVLESLGLKNYIDEFLNSNVYMSRFTNYKVIKGENENKSGLPSHTDSSYLTIIKQNQNGLQVLYKNGEWIELNHTSPNSYIVLSADALMAWTNDRLTSAQHRVVTTGDKDRFSVQLFSLVNPDYTLKVPKELVDEEHPLMYKPFKMPEYNKYLMLGAKNGLGVKNYCGL
For B1, the values for the Km in data set [1] and in data set [2] were 19.6 ± 0.056 µM and 1.7 ± 0.24 µM, respectively.

As usually defined, the Km is the substrate concentration at which the rate is half of its maximum.

For the origin of these results see paper PMC7910490, “The biosynthetic pathway of potato solanidanes diverged from that of spirosolanes due to evolution of a dioxygenase” (Nature Communications, 2021).
